Laboratory results as given in paper PMC7156504, “An in vivo platform to select and evolve aggregation-resistant proteins” (Nature Communications, 2020).
Where two headings read alike, the source gives them in different places.

Tests used:
[1] = target: T1, biotinylated nerve growth factor (NGF) (Homo sapiens, UniProt P01138, biotin (biotinylated in-house, sites not stated))
[2] = target: T1, biotinylated nerve growth factor (NGF); test: AlphaScreen or HTRF; epitope competition assay: biotinylated NGF (detected by streptavidin Europium cryptate) and DyLight650-labelled IgGWFL with increasing concentrations of test IgG; relative affinity; conditions: both partners purified

T1 sequence (P01138 122-241): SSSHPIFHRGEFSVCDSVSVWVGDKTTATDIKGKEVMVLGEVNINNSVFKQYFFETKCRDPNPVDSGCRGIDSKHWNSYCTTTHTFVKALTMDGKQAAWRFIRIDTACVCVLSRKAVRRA

Row | Binder | binding result [1] | binding result [2]
1 | IgG STT (scFv STT) (antibody, V domains shown) VH: QVQLVQSGAEVKKPGSSVKVSCKASGGTFSTGAFTWVRQAPGQGLEWMGGIIPIFGLTNLAQNFQGRVTITADESTSTVYMELSSLRSEDTAVYYCARSSRIYDLNPSLTAYYDMDVWGQGTMVTVSS VL: QSVLTQPPSVSAAPGQKVTISCSGSSSDIGNNYVSWYQQLPGTAPKLLIYDNNKRPSGIPDRFSGSKSGTSATLGITGLQTGDEADYYCGTWDSSLSAWVFGGGTKLTVL | binds | –
2 | evolved scFvWFL variant 37 reformatted as IgG1 (antibody, V domains shown, retains W35, F36 and L64; human IgG1 heavy chain constant region of the TM-YTE IgG1 expression vector; human light chain constant region of the expression vector; IgG1, TM-YTE backbone; retains the original WFL residues (W35, F36 and L64); source: HEK293/EBNA, co-transfected, purified from the culture medium (Protein A)) VH: QVQLVPSGAEVKKPGSSVKVSCKASGGTFWFGAFTWVRQAPGQGLEWMGGIIPTFGLTNLAQNFQGRVTITADESTSTVYMELSSLRSEDTAVYYCARSSRIYDLNPSLTAYYDMDVWGQGTMVTVSS VL: QSVLTQPPSVSAAPGQKVTISCSGPSSDIGNNYVSWYQQLPGTAPKLLIYDNNKRPSGIPDRFSGSKSGTSATLGITGLQTGDEADYYCGTWDSSLSAWVFGGGTKLTVL | – | binds
3 | evolved scFvWFL variant 72 reformatted as IgG1 (antibody, V domains shown, human IgG1 heavy chain constant region of the TM-YTE IgG1 expression vector; human light chain constant region of the expression vector; IgG1, TM-YTE backbone; selected by the TPBLA from an error-prone PCR library of scFvWFL; source: HEK293/EBNA, co-transfected, purified from the culture medium (Protein A)) VH: QVQLVQSGAEVKKPGSSVKVSCKASGGTSWFGAFTWVRQAPGQGLEWMGGTIPIFGLTNLAQNFQGRVTITADESTSTVYMELSSLRSDDTAVYYCARSSRIYDLNPSLTAYYDMGVWGQGTMVTVSS VL: QSVLTQPPSVSAAPGQKVTISCSGSSSDIGDNYVSWYQQLPGTAPKLLIYDNNKRPSGIPDRFSGSKSGTSATLGITGLQTGDEADYYCGTWDSSLSAWVFGGGTKLTVL | – | binds
4 | evolved scFvWFL variant 16 reformatted as IgG1 (antibody, V domains shown, human IgG1 heavy chain constant region of the TM-YTE IgG1 expression vector; human light chain constant region of the expression vector; IgG1, TM-YTE backbone; selected by the TPBLA from an error-prone PCR library of scFvWFL; source: HEK293/EBNA, co-transfected, purified from the culture medium (Protein A)) VH: QVQLVQSGAEVKKPGSSVKVSCKASGGTFWSGAFTWVRQAPGQGLEWMGGIIPISGLTNLAQNFQGRVTITADESTSTAYMELSSLRSEDTAVYYCARSSRIYDLNPSLTAYYDMDVWGQGTMVTVSS VL: QSVLTQPPSVSAAPGQKVTISCSGSSSDIGNNYVSWYQQLPGTAPKLLIYDNNKRPSGIPDRFSGSKSGTSATLGITGLQTGDEADYYCGTWDSSLSAWVIGGGTKLTVL | – | binds
5 | evolved scFvWFL variant 130 reformatted as IgG1 (antibody, V domains shown, human IgG1 heavy chain constant region of the TM-YTE IgG1 expression vector; human light chain constant region of the expression vector; IgG1, TM-YTE backbone; selected by the TPBLA from an error-prone PCR library of scFvWFL; source: HEK293/EBNA, co-transfected, purified from the culture medium (Protein A)) VH: QVQLVQSGAEVKKPGSSVKVSCKASGGAFWFGAFTWVRQAPGQGLEWMGGITPIFGHTNLAQNFQGRVTITADESTSTVYMELSSLRSEDTAVYYCARSSRIYDLNPSLTAYYDMDVWGQGTMVTVSS VL: QSVLTQPPSVSAAPGQKVTISCSGSSSDIGNNYVSWYQQLPGTAPKLLIYDNNKRPSGIPDRFSGSKSGTSATLGITGLQTGDEADYYCGTWDSSLSAWVFGGGTKLTVL | – | binds
6 | MEDI578 (the parent antibody prior to affinity maturation into MEDI1912) (antibody, V domains shown, VH of MEDI578; VL of MEDI578; The entry is printed as 5J7Z in the methods; also called IgG_(MEDI578)) VH: QVQLVQSGAEVKKPGSSVKVSCKASGGTFSTYGISWVRQAPGQGLEWMGGIIPIFDTGNSAQSFQGRVTITADESTSTAYMELSSLRSEDTAVYYCARSSRIYDLNPSLTAYYDMDVWGQGTMVTVSS VL: QSVLTQPPSVSAAPGQKVTISCSGSSSNIGNNYVSWYQQLPGTAPKLLIYDNNKRPSGIPDRFSGSKSGTSATLGITGLQTGDEADYYCGTWDSSLSAWVFGGGTKLTVL | – | binds
7 | evolved scFvWFL variant 128 reformatted as IgG1 (antibody, V domains shown, retains W35, F36 and L64; human IgG1 heavy chain constant region of the TM-YTE IgG1 expression vector; human light chain constant region of the expression vector; IgG1, TM-YTE backbone; retains the original WFL residues (W35, F36 and L64); source: HEK293/EBNA, co-transfected, purified from the culture medium (Protein A)) VH: QVQLVQSGAEVKKPGSSVKVSCKASGGTFWFGAFTWVRQAPGQGLEWMGGIIPIFGLTNLAQNFQGRVTITADESTSTVYMELSSLRSEDTAVYYCARSSRIYDLNPSLTADYDMDVWGQGTMVTVSS VL: QSVLTQPPSVSAAPGQEVTISCSGSSSDIGNNYVSWYQQPPGAAPKLLIYDNNKRPSGIPDRFSGSKSGTSATLGITGLQTGDEADYYCGTWDSSLSAWVFGGGTKLTVL | – | binds
8 | evolved scFvWFL variant 11 reformatted as IgG1 (antibody, V domains shown, human IgG1 heavy chain constant region of the TM-YTE IgG1 expression vector; human light chain constant region of the expression vector; IgG1, TM-YTE backbone; selected by the TPBLA from an error-prone PCR library of scFvWFL; source: HEK293/EBNA, co-transfected, purified from the culture medium (Protein A)) VH: QVQLVRSGAEVKKPGSSVKVSCKASGGTFWFGAFTWVRQAPGQGLEWMGGIIPIFGLTNLAQNFQGRVTITADESTSTVYMELSSLRSEDTAVYYCARSSRIYDLNPSLAAYYDMDVWGQGTMVTVSS VL: QSVLTQPPSVSAAPGQKVTIPCSGSSSDIGNNYVSWYQQLPGTAPKLLIYDNNKRPSGIPDRFSGSKSGTSATLGVTGLQTGDEADYYCGTWDSSLSAWVFGGGTKLTVL | – | binds
9 | evolved scFvWFL variant 59 reformatted as IgG1 (antibody, V domains shown, human IgG1 heavy chain constant region of the TM-YTE IgG1 expression vector; human light chain constant region of the expression vector; IgG1, TM-YTE backbone; selected by the TPBLA from an error-prone PCR library of scFvWFL; source: HEK293/EBNA, co-transfected, purified from the culture medium (Protein A)) VH: QVQLVQSGAEVKKPGSSVKVSCKASGGTFRFGAFTWARQAPGQGLEWMGGIIPIFGLTNLAQNFQGRATITADESTSTVYMELSSLRSEDTAVYYCARSSRIYDLNPSLTAYYDMDVWGQGTMVTVSS VL: QSVLTQPPSVSAAPGQKVTISCSGSSSDIGNNYVSWYQQLPGTAPKLLTYDNNKRPSGIPGRFSGSKSGTSATLGITGLQTGDEADYYCGTWDSSLSAWVFGGGTKLTVL | – | binds
10 | evolved scFvWFL variant 176 reformatted as IgG1 (antibody, V domains shown, human IgG1 heavy chain constant region of the TM-YTE IgG1 expression vector; human light chain constant region of the expression vector; IgG1, TM-YTE backbone; selected by the TPBLA from an error-prone PCR library of scFvWFL; source: HEK293/EBNA, co-transfected, purified from the culture medium (Protein A)) VH: QVQLVRSGAEVKKPGSSVKVSCKASGGTFWFGAFTWVRQAPGQGLEWMGGIIPIFGLTNLAQNFQGRVTITADESTSTVYMELSSLRSEDTAVYYCARSSRIYDLNPSLTAYYDMDVWGQGTMVTVSS VL: QSVLTQPPSVSAAPGQKVTISCSGSSSDIGNNYVSWYQQLPGTAPKLLIYDNNKRPSGIPDRFSGSKSGTSATLGITGLQTGDEADYYCGTWDSSLSAWVFGGGTKLTVL | – | binds
11 | evolved scFvWFL variant 126 reformatted as IgG1 (antibody, V domains shown, human IgG1 heavy chain constant region of the TM-YTE IgG1 expression vector; human light chain constant region of the expression vector; IgG1, TM-YTE backbone; selected by the TPBLA from an error-prone PCR library of scFvWFL; source: HEK293/EBNA, co-transfected, purified from the culture medium (Protein A)) VH: QVQLVQSGAEVKKPGSSVKVSCKASGGTFWFGAFTWVRQAPGQGLEWMGGFIPISGLTNLAQNFQGRVTITADESTSTVYMELSSLRSEDTAVYYCARSSRIYDLNPSLTAYYDMDVWGQGTMVTVSS VL: QSVLTQPPSVSAAPGQKVTISCSGSSSDIGNNYVSWYQQLPGTAPKLLIYDNNKRPSGIPDRFSGSKSGTSATLGITGLQTGDEADYYCGTWDSSLSAWVFGGGTKLTVL | – | binds
12 | evolved scFvWFL variant 139 reformatted as IgG1 (antibody, V domains shown, human IgG1 heavy chain constant region of the TM-YTE IgG1 expression vector; human light chain constant region of the expression vector; IgG1, TM-YTE backbone; the best performing variant of the screen; source: HEK293/EBNA, co-transfected, purified from the culture medium (Protein A)) VH: QVQLVQSGAEVKKPGSSVKVSCKAGGGTFWSGAFTWVRQAPGQGLEWMGGIIPIFGLTNLAQNFQGRVTITADESTSTVYMELSSLRSEDTAVYYCARSSRTYDLNPSLTAYYDMDVWGQGTMVTVSS VL: QSVLTQPPSVSAAPGQKVTISCSGSSSDIGNNYVSWYQQLPGTAPKLLIYDNNKRPSGIPDRFSGSKSGTTATLGITGLQTGDEADYYCGTWDSSLSAWVFGGGTKLTVL | – | binds
13 | DyLight650-labelled IgGWFL (antibody, V domains shown, as the VH of m1; human IgG1 heavy chain constant region of the TM-YTE IgG1 expression vector; as the VL of m1; human light chain constant region of the expression vector; same protein as m1; also called labelled MEDI1912; source: HEK293/EBNA, co-transfected, purified from the culture medium (Protein A); labelled with DyLight650) VH: QVQLVQSGAEVKKPGSSVKVSCKASGGTFWFGAFTWVRQAPGQGLEWMGGIIPIFGLTNLAQNFQGRVTITADESTSTVYMELSSLRSEDTAVYYCARSSRIYDLNPSLTAYYDMDVWGQGTMVTVSS VL: QSVLTQPPSVSAAPGQKVTISCSGSSSDIGNNYVSWYQQLPGTAPKLLIYDNNKRPSGIPDRFSGSKSGTSATLGITGLQTGDEADYYCGTWDSSLSAWVFGGGTKLTVL | – | binds
